Reference: paper PMC5784979, “Direct comparison of the four aldehyde oxidase enzymes present in mouse gives insight into their substrate specificities” (PLoS ONE, 2018)

Experiments:
Assay in all cases: purified protein
Conditions in all cases: 100 μM DCPIP as electron acceptor, 50 mM Tris-HCl, 1 mM EDTA, pH 8.0, 37°C, corrected to 100% Mo saturation
purified protein [1] = substrate: COc1ccccc1C=O; format: biochemical, Mus musculus
purified protein [2] = substrate: c1ncc2[nH]cnc2n1; format: biochemical, Mus musculus
purified protein [3] = substrate: CC=O; format: biochemical, Mus musculus
purified protein [4] = substrate: c1ccc2c(c1)cnc1ccccc12
purified protein [5] = substrate: O=Cc1ccccc1; format: biochemical, Mus musculus
purified protein [6] = substrate: CCCCC=O; format: biochemical, Mus musculus
purified protein [7] = substrate: c1ccc2cnncc2c1; format: biochemical, Mus musculus
purified protein [8] = substrate: O=Cc1ccccc1O; format: biochemical, Mus musculus

B1: mAOX1 (Mus musculus) (protein)
chain: MDPIQLLFYVNGQKVVEKNVDPEMMLLPYLRKNLRLTGTKYGCGGGGCGACTVMISRYNPSTKAIRHHPVNACLTPICSLHGTAVTTVEGLGNTRTRLHPIQERIAKCHGTQCGFCTPGMVMSMYALLRNHPEPTLDQLTDALGGNLCRCTGYRPIIDACKTFCKASACCQSKENGVCCLDQEINGLAESQEEDKTSPELFSEEEFLPLDPTQELIFPPELMRIAEKQPPKTRVFYGERVTWISPVTLKELVEAKFKYPQAPIVMGYTSVGPEVKFKGVFHPIIISPDRIEELGVISQARDGLTLGAGLSLDQVKDILADIVQKLPEEKTQTYRALLKHLRTLAGSQIRNMASLGGHIVSRHLDSDLNPLLAVGNCTLNLLSKDGERRIPLSEEFLRKCPEADLKPQEVLVSVNIPWSRKWEFVSAFRQAQRQQNALAIVNSGMRVLFREGGGVIEELSILYGGVGSTIISAKNSCQRLIGRPWNEGMLDTRCRLVLDEVTLAASAPGGKVEFKRTLIISFLFKFYLEVSQGLKREDPGHSPSLAGNHESALDDLHSKHPWRTLTHQNVDPAQLPQDPIGRPIMHLSGIKHATGEAIYCDDMPAVDRELFLTFVTSSRAHAKIVSIDLSEALSLPGVVDIITADHLQEANTFGTETFLATDEVHCVGHLVCAVIADSETRAKQAAKQVKVVYQDLAPLILTIEEAIQHKSFFKSERKLECGNVDEAFKIVDQILEGEIHIGGQEHFYMETQSMLVVPKGEDGEIDIYVSTQFPKYIQDIVAATLKLSANKVMCHVRRVGGAFGGKVGKTSILAAITAFAASKHGRAVRCILERGEDMLITGGRHPYLGKYKAGFMNEGRILALDVEHYCNGGCSLDESLWVIEMGLLKLDNAYKFPNLRCRGWACRTNLPSNTALRGFGFPQAGLVTEACITEVAIKCGLSPEQVRTINMYKHVDTTHYKQEFSAKALSECWRECMAKCSYFERKAAIGKFNAENSWKKRGMAVIPLKFPVGIGSVAMGQAAALVHIYLDGSALVSHGGIEMGQGVHTKMIQVVSRELRMPMSSVHLRGTSTETVPNTNASGGSVVADLNGLAVKDACQTLLKRLEPIISKNPQGTWKDWAQTAFDQSISLSAVGYFRGYESNIDWEKGEGHPFEYFVFGAACSEVEINCLTGDHKNIRTNIVMDVGHSINPALDIGQVEGAFIQGMGLYTIEELSYSPQGTLYSRGPNQYKIPAICDIPTEMHISFLPPSEHSNTLYSSKGLGESGVFLGCSVFFAIHDAVKAARQERGISGPWKLNSPLTPEKIRMACEDKFTKMIPRDEPGSYVPCNIPV
notes: recombinant from E. coli TP1000 (codon-optimized plasmid pMAOX1co), Ni-NTA and Superdex 200 purified, chemically sulfurated, dimer (300 kDa)
B1 was tested, and the Km (purified protein [1]) was 6.6 ± 1.5 µM, the kcat (purified protein [1]) was 6.885 ± 0.362 s⁻¹ and the Km (purified protein [2]) was 9028 ± 971 µM. For the same protein, the kcat (purified protein [2]) was 7.147 ± 0.29 s⁻¹, the Km (purified protein [3]) was 18000 µM and the Km (purified protein [4]) was 2.5 ± 1.1 µM. For the same protein, the kcat (purified protein [4]) was 2.013 ± 0.277 s⁻¹.

B2: mAOX3 (Mus musculus) (protein)
chain: MSPSKESDELIFFVNGKKVTERNADPEVNLLFYLRKVIRLTGTKYGCGGGDCGACTVMISRYDPISKRISHFSATACLVPICSLHGAAVTTVEGIGSTKTRIHPVQERIAKGHGTQCGFCTPGMVMSIYTLLRNHPEPSTEQIMETLGGNLCRCTGYRPIVESAKSFCPSSTCCQMNGEGKCCLDEEKNEPERKNSVCTKLYEKKEFQPLDPTQELIFPPELMRMAEESQNTVLTFRGERTTWIAPGTLNDLLELKMKHPSAPLVIGNTYLGLHMKFTDVSYPIIISPARILELFVVTNTKQGLTLGAGLSLTQVKNVLSDVVSRLPKEKTQIYCALLKQLKTLAGQQIRNVASLGGHIISRLPTSDLNPILGIGNCILNVASTEGIQQIPLNDHFLAGVPDAILKPEQVLISVFVPRSSKWEFVSAFRQAPRQQNAFATVNAGMKVVFKEDTNTITDLGILYGGIGATVISADKSCRQLIGRCWDEEMLDDAGKMICEEVSLLMAAPGGMEEYRKTLAISFLFMFYLDVLKQLKTRDPHKYPDISQKLLHILEDFPLTMPYGMQSFQDVDFQQPLQDPIGRPIMHQSGIKHATGEAVFCDDMSVLPGELFLAVVTSSKSHAKIISLDASEALASLGVVDVVTARDVPGDNGREEESLYAQDEVICVGQIVCAVAADSYAHAQQAAKKVKIVYQDIEPMIVTVQDALQYESFIGPERKLEQGNVEEAFQCADQILEGEVHLGGQEHFYMETQSVRVVPKGEDKEMDIYVSSQDAAFTQEMVARTLGIPKNRINCHVKRVGGAFGGKASKPGLLASVAAVAAQKTGRPIRFILERRDDMLITGGRHPLLGKYKIGFMNNGKIKAADIQLYINGGCTPDDSELVIEYALLKLENAYKIPNLRVRGRVCKTNLPSNTAFRGFGFPQGAFVTETCMSAVAAKCRLPPEKVRELNMYRTIDRTIHNQEFDPTNLLQCWEACVENSSYYNRKKAVDEFNQQRFWKKRGIAIIPMKFSVGFPKTFYYQAAALVQIYTDGSVLVAHGGVELGQGINTKMIQVASRELKIPMSYIHLDEMSTVTVPNTVTTGASTGADVNGRAVQNACQILMKRLEPIIKQNPSGTWEEWVKEAFVQSISLSATGYFRGYQADMDWEKGEGDIFPYFVFGAACSEVEIDCLTGAHKNIRTDIVMDGSFSINPAVDIGQIEGAFVQGLGLYTLEELKYSPEGVLYTRGPHQYKIASVTDIPEEFHVSLLTPTPNPKAIYSSKGLGEAGTFLGCSVFFAIAAAVAAAREERGLSPIWAINSPATAEVIRMACEDQFTNLVPQTDSKCCKPWSIPVA
notes: recombinant from E. coli TP1000 (plasmid pMMA1), Ni-NTA and Superdex 200 purified, chemically sulfurated, dimer (300 kDa)
B2 was tested, and the Km (purified protein [5]) was 0.8 ± 0.1 µM, the kcat (purified protein [5]) was 2.512 ± 0.06 s⁻¹ and the Km (purified protein [2]) was 3181 ± 334 µM. For the same protein, the kcat (purified protein [2]) was 7.862 ± 0.298 s⁻¹, the Km (purified protein [4]) was 10.8 ± 1.8 µM and the kcat (purified protein [4]) was 2.353 ± 0.0917 s⁻¹.

B3: mAOX2 (Mus musculus) (protein)
chain: MPCPAQISDDLEFFVNGRKVTEKNVDPEVTLLAFLRKNLCLTGTKDACGTGGCGACTVMVSQHDPVCKKTRHFSVMACLVPLCSLHGAAVTTVEGVGSIKTRLHPVQERIAKSHGTQCGFCTPGMVMSIYTLLRNHPQPSEEQLMEALGGNLCRCTGYRPILESGRTFCMEPDGCPQKGTGQCCLDQKESDSSGSKSDICTKLFVKDEFQPLDPTQELIFPPELLRMAENPEKQTLTFYGERITWIAPGTLQELLVLKAKYPEAPLISGNTALGPAMKSQGHFYPVLLSPARIPDLRMVTKTSGGLTIGACCSLAQVKDILAESISELPQEKTQTYRALLKHLRSLAGQQIRNMASLGGHVISRHCYSDLNPILSVGNTTLNLLSEEGPRQIPLSGHFLAGLASADLKPEEILGSVYIPHSQKREFVSAFRQAQCHQNALPDVNAGMRVLFREGTDVIEELSIAYGGVGPTTVSAQRSCQQLLGRRWNALMLDEACRLLLDEVSLPGSALGGKVEFRRTLIVSLFFKFYLEVLQELKADQKLPPESTDSQRYPEIADRFLSSLGDFQVTLPRGVQTYQRVDSHQPLQDPVGRPIMHLSGLKHATGEAVFCDDIPRVDKELFMALVTSTRAHARIISIDSSEVLDLPGVVDVITAEDIPGNNGEEDDKLLAVDKVLCVGQVICAVVAETDVQAKRATEKIKITYEDLKPVIFTIEDAIKHNSFLCPEKKLEQGNIEEAFENVDQVAEGTVHVGGQEHFYMETQRVLVIPKTEDKELDMYVSTQDPAHVQKTVSSTLNIPISRITCHVKRVGGGFGGKVGRPAVFGAIAAVGAVKTGHPIRLVLDREDDMLITGGRHPLFAKYKVGFMNSGRIKALDIECYINGGCTLDDSELVTEFLVLKLENAYKIRNLRLRGRACMTNLPSNTAFRGFGFPQGALVTESCITAVAAKCGLPPEKIREKNMYKTVDKTIYKQAFNPDPLIRCWNECLDKSSFHIRRTRVDEFNKKSYWKKRGIAIVPMKFSVGFAATSYHQAAALVHIYTDGSVLVAHGGNELGQGIHTKMLQVASRELKIPLSYLHICETSTTTVPNTIATAASVGADVNGRAVQNACQILLKRLEPVIKKNPEGTWRDWIEAAFEKRISLSATGYFRGYKAFMDWEKGEGDPFPYYVYGAACSEVEIDCLTGAHKKIRTDIVMDACCSLNPAIDIGQIEGAFIQGMGLYTTEELLYSPEGVLYSRSPDKYKIPTVTDVPEQFNVSLLPSSQTPLTLYSSKGLGESGMFLGSSVFFAIVDAVAAARRQRDIAEDFTVKSPATPEWVRMACADRFTDMIPRDDPKTFKPWSIPIA
notes: recombinant from E. coli TP1000 (codon-optimized plasmid pMAOX2co), Ni-NTA and Superdex 200 purified, chemically sulfurated, dimer (300 kDa)
Work on B3 yielded a Km (purified protein [2]) of 298.4 µM, a Km (purified protein [4]) of 1.9 ± 0.3 µM and a kcat (purified protein [4]) of 1.962 ± 0.0817 s⁻¹.

B4: mAOX4 (Mus musculus) (protein)
chain: MPSVSESDELIFFVNGKKVIEKNPDPEKNLLFYTRKVLNLTGTKYSCGTGGCGACTVMVSRYNPKTRKIHHYPATACLVPICWLHGAAITTVEGVGSIKKRVHPVQERLAKCHGTQCGFCSPGMVMSIYTLLRNHPEPTPDQITEALGGNLCRCTGYRPIVESGKTFSQKSTVCQMKGSGKCCMDPDEKCLESREKKMCTKLYNEDEFQPFDPSQEPIFPPELIRMAEDPNKRRLTFQGKRTTWIIPVTLNDLLELKASYPEAPLVMGNTTVGPGIKFNDEFYPVFISPLGVPELNLMDTTNNGVTIGAGYSLAQLKDTLDFLVSEQPKEKTKTFHALQKHLRTLAGPQIRNMATLGGHTASRPNFSDLNPILAAGNATINVVSREGKDRQLPLNGPFLEKLPEADLKPEEVILSIFIPYTAQWQFVSGLRLAQRQENAFAIVNAGMSVEFEEGTNTIKDLKMFFGSVAPTVVSASQTCKQLIGRQWDDQMLSDACQLVLQEIRIPPDAEGGMVEYRRTLIISLLFKFYLKVQRWLNEMDPQKFPDIPGKFVSALDDFPIETPQGIQMFQCVDPKQPQKDPVGHPIMHQSGIKHATGEAIFIDDMPPIDQELCLAVVTSTRAHAKITSLDVSEALACPGVVDVITAEDVPGENDHNGEILYAQSEVICVGQIICTVAADTYIHAKEAAKRVKIAYDDIEPTIITIEEALEHNSFLSPEKKIEQGNVDYAFKHVDQIVEGEIHVEGQEHFYMETQTILAIPQTEDKEMVLHLGTQFPTHVQEFVSAALNVPRSRIACHMKRAGGAFGGKVTKPALLGAVCAVAANKTGRPIRFILERSDDMLITAGRHPLLGKYKIGFMNNGEIRAADVEYYTNGGCTPDESELVIEFVVLKSENTYHIPNFRCRGRACKTNLPSNTAFRGFGFPQATVVVEAYIAAVASKCNLLPEEVREINMYKKTSKTAYKQTFNPEPLRRCWKECLEKSSFFARKKAAEEFNGNNYWKKRGLAVVPMKFSVAVPIAFYNQAAALVHIFLDGSVLLTHGGCELGQGLHTKMIQVASRELNVPKSYVHFSETSTTTVPNSAFTAGSMGADINGKAVQNACQILMDRLRPIIRKNPKGKWEEWIKMAFEESISLSATGYFKGYQTNMDWKKEEGDPYPYYVYGAACSEVEVDCLTGAHKLLRTDIFVDAAFSINPALDIGQVEGAFIQGMGFYTTEELKYSPKGVLYSRGPEDYKIPTITEIPEEFYVTLVHSRNPIAIYSSKGLGEAGMFLGSSVLFAIYDAVTTARKERGLSDIFPLNSPATPEVIRMACTDQFTEMIPRDDPSTFTPWSIHVS
notes: recombinant from E. coli TP1000 (plasmid pMAOX4), Ni-NTA and Superdex 200 purified, chemically sulfurated, dimer (300 kDa)
For B4, the Km (purified protein [6]) was 48.3 ± 8.7 µM, the kcat (purified protein [6]) was 2.8 ± 0.22 s⁻¹ and the kcat/Km (purified protein [6]) was 58300 M⁻¹ s⁻¹. For the same protein, the Km (purified protein [7]) was 8.3 ± 0.9 µM, the kcat (purified protein [7]) was 5.51 ± 0.142 s⁻¹ and the kcat/Km (purified protein [7]) was 665000 M⁻¹ s⁻¹. The Km (purified protein [5]) was 2.2 ± 0.2 µM, the kcat (purified protein [5]) was 1.52 ± 0.0383 s⁻¹ and the kcat/Km (purified protein [5]) was 693000 M⁻¹ s⁻¹. The Km (purified protein [2]) was 12344 µM, the Km (purified protein [8]) was 13.2 ± 2.4 µM and the kcat (purified protein [8]) was 3.42 ± 0.112 s⁻¹. For the same protein, the kcat/Km (purified protein [8]) was 260000 M⁻¹ s⁻¹.
